# Like-named read-outs stand apart in the source and are kept apart here.
# Columns and labels:
# [1] = molecular target: H1 HA A/NC/20/99 (on infectious virus) (influenza A virus A/NC/20/99 (H1N1)); experiment: cell-based or functional assay
# [2] = molecular target: H1 HA A/CA/07/09 (on infectious virus) (influenza A virus A/CA/07/09 (H1N1)); experiment: cell-based or functional assay
# [3] = molecular target: H5 HA A/Anhui/1/5 (on pseudotypes) (influenza A virus A/Anhui/1/5 (H5N1)); experiment: cell-based or functional assay
# [4] = molecular target: H5 HA A/HK/213/03 (on pseudotypes) (influenza A virus A/HK/213/03 (H5N1)); experiment: cell-based or functional assay
# [5] = molecular target: H1 HA A/SI/3/06 (on infectious virus) (influenza A virus A/SI/3/06 (H1N1)); experiment: cell-based or functional assay
# [6] = molecular target: H5 HA A/VN/1203/04 (on pseudotypes and on infectious virus) (influenza A virus A/VN/1203/04 (H5N1)); experiment: cell-based or functional assay
# [7] = molecular target: H1 HA A/swine/Iowa/31 (on infectious virus) (influenza A virus A/swine/Iowa/31 (H1N1)); experiment: cell-based or functional assay
# [8] = molecular target: H9 HA A/ck/HK/G9/97 (on infectious virus) (influenza A virus A/ck/HK/G9/97 (H9N2)); experiment: cell-based or functional assay
# [9] = molecular target: H6 HA A/teal/HK/WN312/97 (on infectious virus) (influenza A virus A/teal/HK/W312/97 (H6N1)); experiment: cell-based or functional assay
# [10] = molecular target: H5 HA A/VN/1194/04 (on pseudotypes) (influenza A virus A/VN/1194/04 (H5N1)); experiment: cell-based or functional assay
# [11] = molecular target: H5 HA A/WS/Mong/244/05 (on pseudotypes) (influenza A virus A/WS/Mong/244/05 (H5N1)); experiment: cell-based or functional assay
# [12] = molecular target: H9 HA A/HK/1073/99 (on infectious virus) (influenza A virus A/HK/1073/99 (H9N2)); experiment: cell-based or functional assay
# [13] = molecular target: H1 HA A/NJ/76 (on infectious virus) (influenza A virus A/NJ/76 (H1N1)); experiment: cell-based or functional assay
# [14] = molecular target: H5 HA A/HK/491/97 (on pseudotypes) (influenza A virus A/HK/491/97 (H5N1)); experiment: cell-based or functional assay
# [15] = molecular target: H3 HA A/WY/3/03 (on infectious virus) (influenza A virus A/WY/3/03 (H3N2)); experiment: cell-based or functional assay
# [16] = molecular target: H1 HA A/PR/8/34 (on infectious virus) (influenza A virus A/PR/8/34 (H1N1)) (UniProt P03452); experiment: cell-based or functional assay
# [17] = molecular target: H5 HA A/INDO/5/05 (on pseudotypes and on infectious virus) (influenza A virus A/INDO/5/05 (H5N1)); experiment: cell-based or functional assay
# [18] = molecular target: recombinant trimeric H5 HA (A/VN/1203/04) (influenza A virus A/VN/1203/04 (H5N1)); experiment: competition ELISA on recombinant trimeric H5 HA; competitor FLD21
# [19] = molecular target: H9 HA A/HK/1073/99 (ELISA antigen) (influenza A virus A/HK/1073/99 (H9)); experiment: ELISA
# [20] = molecular target: H1 HA A/SI/3/06 (ELISA antigen) (influenza A virus A/SI/3/06 (H1)); experiment: ELISA
# [21] = molecular target: H1 HA A/Texas/3/99 (ELISA antigen) (influenza A virus A/Texas/3/99 (H1)); experiment: ELISA
# [22] = molecular target: recombinant trimeric H5 HA (A/VN/1203/04) (influenza A virus A/VN/1203/04 (H5N1)); experiment: ELISA
# [23] = molecular target: H5 HA A/INDO/5/05 (ELISA antigen) (influenza A virus A/INDO/5/05 (H5N1)); experiment: ELISA
# [24] = molecular target: H1 HA A/CA/07/09 (on infectious virus) (influenza A virus A/CA/07/09 (H1N1)); experiment: cell-based or functional assay; remark: listed apart in the source
# [25] = molecular target: H5 HA A/VN/1203/04 (on pseudotypes and on infectious virus) (influenza A virus A/VN/1203/04 (H5N1)); experiment: cell-based or functional assay; remark: listed apart in the source
# [26] = molecular target: H1 HA A/swine/Iowa/31 (on infectious virus) (influenza A virus A/swine/Iowa/31 (H1N1)); experiment: cell-based or functional assay; remark: listed apart in the source
# [27] = molecular target: H1 HA A/NJ/76 (on infectious virus) (influenza A virus A/NJ/76 (H1N1)); experiment: cell-based or functional assay; remark: listed apart in the source
# [28] = molecular target: H1 HA A/PR/8/34 (on infectious virus) (influenza A virus A/PR/8/34 (H1N1)) (UniProt P03452); experiment: cell-based or functional assay; remark: listed apart in the source
# [29] = molecular target: recombinant trimeric H5 HA (A/VN/1203/04) (influenza A virus A/VN/1203/04 (H5N1)); experiment: competition ELISA on recombinant trimeric H5 HA; competitor C179
# [30] = molecular target: H2 HA A/JP/305/57 (on infectious virus) (influenza A virus A/JP/305/57 (H2N2)) (UniProt P03451); experiment: cell-based or functional assay
Binder,Neutralization H1N1 IC90 [1] [µg/mL],Neutralization of infectious viruses (IC50) [1] [µg/mL],Neutralization of HA-pseudotypes (IC90) [3] [µg/mL],Neutralization of HA-pseudotypes (IC90) [4] [µg/mL],Neutralization H1N1 IC90 [5] [µg/mL],Neutralization of infectious viruses (IC50) [5] [µg/mL],Neutralization of HA-pseudotypes (IC90) [6] [µg/mL],Neutralization of infectious viruses (IC50) [8] [µg/mL],Neutralization H5pp IC90 [10] [µg/mL],Neutralization of HA-pseudotypes (IC90) [10] [µg/mL],Neutralization of HA-pseudotypes (IC90) [11] [µg/mL],Neutralization of infectious viruses (IC50) [12] [µg/mL],Neutralization of HA-pseudotypes (IC90) [14] [µg/mL],Neutralization of HA-pseudotypes (IC90) [17] [µg/mL],Competition (%) [18] [%],K50 [19] [µg/mL],K50 [20] [µg/mL],K50 [21] [µg/mL],K50 [22] [µg/mL],Competition (%) [29] [%],also measured
"FE43 (antibody, V domains shown) VH: QVHLVQSGAEVKKPGSSVRLSCSASGGPFSGFAISWLRQAPGQGLEWLGGISAVFGTATYAQKFQGRVTITADQFTSTSHMDLSRLTYDDTAVYYCARSGGYLPQNNWIDPWGQGTLVIVSS VL: DIVMTQTPLSLSVTPGQPASISCKSSQSLLHSDGKTYLYWYLQKPGQSPQLLIYEVSNRFSGVPDRFSGSGSGTDFTLKISRVEAEDVGVYYCMQNILLPLTFGGGTKVEIK",6.2,40,0.137,0.07,6.2,9,0.146,4,0.03,0.061,0.186,50,0.053,0.39,< 20,0.307,0.206,0.013,0.029,100,Hemagglutination inhibition titer [2]: < 5; Hemagglutination inhibition titer [6]: < 5; Neutralization H5N1 IC50 [6]: > 50 µg/mL; Hemagglutination inhibition titer [7]: 20; Neutralization H9N2 IC50 [8]: 0.02 µg/mL; Neutralization of infectious viruses (IC50) [9]: 20 µg/mL; Hemagglutination inhibition titer [13]: < 5; Neutralization H3N2 IC50 [15]: > 50 µg/mL; Hemagglutination inhibition titer [16]: < 5; Neutralization of infectious viruses (IC50) [16]: 4 µg/mL; Neutralization of infectious viruses (IC50) [17]: 25 µg/mL; K50 [23]: 4.54 µg/mL; Neutralization of infectious viruses (IC50) [24]: 4 µg/mL; Neutralization of infectious viruses (IC50) [25]: > 50 µg/mL; Neutralization of infectious viruses (IC50) [26]: 3 µg/mL; Neutralization of infectious viruses (IC50) [27]: 9 µg/mL; Neutralization of infectious viruses (IC50) [28]: 1.5 µg/mL
"FC6 (antibody, V domains shown) VH: QGQLVQSGAEVKKSGSSVKVSCKTSGGTFNSHAISWVRQAPGQGLEWIGGIIPMFGTTNYAQKLKGRIAITADQLPTTAYLELSSLRSEDTAVYYCARGQRYYYDRDGMDVWGQGTMVTVSS VL: EIVMTQTPLSLSVTPGQPASISCRSSQSLLHSDGKTYLYWYLQKPGQPPQLLISEVFNRFSGVPDRFSGSGSGTDFTLKISRVEAEDVGVYYCMQSLQLPLTFGGGTKVEIK",12.5,40,0.112,0.077,12.5,18,0.096,9,0.04,0.061,0.073,36,0.081,0.242,< 20,0.15,1.47,0.066,0.157,100,Neutralization of infectious viruses (IC50) [9]: 63 µg/mL; Neutralization of infectious viruses (IC50) [16]: 16 µg/mL; Neutralization of infectious viruses (IC50) [17]: 31 µg/mL
"FB139 (antibody, V domains shown) VH: QVQLVQSGAEVKKAGSSVKVSCQSSGVTFSMYAVSWVRQAPGQGLEWMGGIIPLFGTTTYAQKFEGRLTITADTSTNMAYLELRSLRSEDTAVYFCARAGTTVTRFNWFDPWGQGTLVTVSS VL: EVVLTQSPGTLSLSPGQRATLSCRASQSVSSSYLAWYQQKPGQAPRLLIYDASNRATGIPDRFSGSGSGTDFTLTISRLEPEDFAVYYCQQYGSSPYTFGQGTKLEIK",–,36,0.022,0.019,–,4,0.034,6,–,0.04,0.035,20,0.019,0.106,< 20,0.066,1.38,0.06,0.033,100,Neutralization of infectious viruses (IC50) [30]: 50 µg/mL; Neutralization of infectious viruses (IC50) [6]: 36 µg/mL; Neutralization of infectious viruses (IC50) [16]: 5 µg/mL; Neutralization of infectious viruses (IC50) [17]: 36 µg/mL; K50 [23]: 0.163 µg/mL
"FE53 (antibody, V domains shown) VH: QVQLVQSGAEVKKPGSSVKVSCKASGVTSSNYPITWVRQAPGQGLEWMGGVLPLFGVTNYAQKFQGRVTISADKSTNTAYMELSSLRSEDTAVYYCARGKRPGYCSGGVCSSDYWGQGTLVTVSS VL: DIQMTQSPSSLSASVGDRVSITCQASQDISRYLNWYQQKPGEAPKLLIYDASNLETGVPSRFSGSGSGTDFTFTISSLQPEDIATYFCQQYGYLPLTFGPGTKVDSK",6.2,37,0.065,0.066,6.2,6,0.098,2,0.008,0.008,0.077,8,0.046,0.491,< 20,0.014,0.375,0.015,0.015,100,Neutralization H5N1 IC50 [6]: > 50 µg/mL; Neutralization H9N2 IC50 [8]: 0.1 µg/mL; Neutralization H3N2 IC50 [15]: > 50 µg/mL; K50 [23]: 0.084 µg/mL
